Consider three variants from FireProtDB (doi:10.1021/bi962939w).

To fix the notation:
B1: Interleukin-6, P08505 (parent)
chain: MKFLSARDFHPVAFLGLMLVTTTAFPTSQVRRGDFTEDTTPNRPVYTTSQVGGLITHVLWEIVEMRKELCNGNSDCMNNDDALAENNLKLPEIQRNDGCYQTGYNQEICLLKISSGLLEYHSYLEYMKNNLKDNKKDKARVLQRDTETLIHIFNQEVKDLHKIVLPTPISNALLTDKLESQKEWLRTKTIQFILKSLEEFLKVTLRSTRQT

This data set covers variants of B1. Particulars: Mus musculus, 25 °C, CD, structure 2L3Y, whole UniProt chain shown.
Setting [1] is: pH 4, Urea, Sodium acetate 10 mM.

Take MKFLSARDFHPVAFLGLMLVTTTAFPTSQVRRGDFTEDTTPNRPVYTTSQVGGLITAVLAEIVEMRKELCNGNSDCMNNDDALAENNLKLPEIQRNDGCYQTGYNQEICLLKISSGLLEYHSYLEYMKNNLKDNKKDKARVLQRDTETLIHIFNQEVKDLHKIVLPTPISNALLTDKLESQKEWLRTKTIQFILKSLEEFLKVTLRSTRQT [H57A W60A]: under setting [1], the “ddG of mutation (higher = less stable)” value stood at 2.2 kcal/mol, the denaturant m value came to 2.3 kcal/mol/M, the “denaturant midpoint (higher = more stable)” value (shortened to “denaturant midpoint”) came out at 3.8 M and the unfolding free energy worked out at 8.6 kcal/mol. In addition, where the note is “pH 7.4, GdnHCl, Tris-HCl 10 mM”, the “ddG of mutation (higher = less stable)” value was -4.1 kcal/mol, the denaturant m value worked out at 3 kcal/mol/M, the “denaturant midpoint” value worked out at 2 M and the unfolding free energy amounted to 6 kcal/mol. Also, under “pH 7.4, Urea, Tris-HCl 10 mM”, the “ddG of mutation (higher = less stable)” value is -1.8 kcal/mol, the denaturant m value was determined as 1.5 kcal/mol/M, the “denaturant midpoint” value was 4.9 M and the unfolding free energy is 7.5 kcal/mol.
As for MKFLSARDFHPVAFLGLMLVTTTAFPTSQVRRGDFTEDTTPNRPVYTTSQVGGLITAVLWEIVEMRKELCNGNSDCMNNDDALAENNLKLPEIQRNDGCYQTGYNQEICLLKISSGLLEYHSYLEYMKNNLKDNKKDKARVLQRDTETLIHIFNQEVKDLHKIVLPTPISNALLTDKLESQKEWLRTKTIQFILKSLEEFLKVTLRSTRQT [H57A], under setting [1], the “ddG of mutation (higher = less stable)” value came out at 3.9 kcal/mol, the denaturant m value stood at 1.9 kcal/mol/M, the “denaturant midpoint” value worked out at 3.58 M and the unfolding free energy was 6.9 kcal/mol. Where the note is “pH 7.4, GdnHCl, Tris-HCl 10 mM”, the “ddG of mutation (higher = less stable)” value stood at 0.3 kcal/mol, the denaturant m value worked out at 0.8 kcal/mol/M, the “denaturant midpoint” value came out at 2 M and the unfolding free energy was 1.6 kcal/mol.
As for MKFLSARDFHPVAFLGLMLVTTTAFPTSQVRRGDFTEDTTPNRPVYTTSQVGGLITHVLAEIVEMRKELCNGNSDCMNNDDALAENNLKLPEIQRNDGCYQTGYNQEICLLKISSGLLEYHSYLEYMKNNLKDNKKDKARVLQRDTETLIHIFNQEVKDLHKIVLPTPISNALLTDKLESQKEWLRTKTIQFILKSLEEFLKVTLRSTRQT [W60A], under setting [1], the “ddG of mutation (higher = less stable)” value turned out to be 2 kcal/mol, the denaturant m value turned out to be 2.5 kcal/mol/M, the “denaturant midpoint” value turned out to be 3.5 M and the unfolding free energy turned out to be 8.8 kcal/mol. Also, under “pH 7.4, GdnHCl, Tris-HCl 10 mM”, the “ddG of mutation (higher = less stable)” value is -3.1 kcal/mol, the denaturant m value is 2.5 kcal/mol/M, the “denaturant midpoint” value was 4.6 M and the unfolding free energy worked out at 5 kcal/mol. Further, where the note is “pH 7.4, Urea, Tris-HCl 10 mM”, the “ddG of mutation (higher = less stable)” value came to 1.7 kcal/mol, the denaturant m value is 1 kcal/mol/M, the “denaturant midpoint” value is 4.6 M and the unfolding free energy worked out at 4 kcal/mol.
